From patent publication US20020115596A1 (MERK, published 2002)
Non-standard residues stand in square brackets, D forms with d. Primed or numbered codes have the meaning given here. PEG(2)″ = polyethylene glycol containing substituent with 2 ethyleneoxy subunits; Hyp = O=C(O)[C@@H]1C[C@@H](O)CN1; Chg = N[C@H](C(=O)O)C1CCCCC1; ΔPro = O=C(O)[C@@H]1C=CCN1

Target: free prostate specific antigen (PSA) (human, UniProt P07288 25-261)
Test: cell-based or functional assay

Binder	Time to 50% Substrate Cleavage by PSA (Min); the cell gives the percent cleaved at 3 hours [% cleaved at 3 hours]
XASXQSX (N-terminal acetyl; 4-trans-L-Hyp (trans-4-hydroxy-L-proline) at position 1 (written X); Chg (cyclohexylglycine) at position 4 (written X); TIC (1,2,3,4-tetrahydro-3-isoquinoline carboxylic acid) at position 7 (written X); C-terminal free acid) [Ac-(4-trans-L-Hyp)ASChgQ-S(TIC)-acid]	16
Ac-[Hyp][Chg]QSSSL-OH (SMILES CC(=O)N1C[C@H](O)C[C@H]1C(=O)N[C@H](C(=O)N[C@@H](CCC(N)=O)C(=O)N[C@@H](CO)C(=O)N[C@@H](CO)C(=O)N[C@@H](CO)C(=O)N[C@@H](CC(C)C)C(=O)O)C1CCCCC1) [Ac-(4-trans-L-Hyp)ChgQ-SSSL-acid]	0

Second part, the binder after the results:

Time to 50% Substrate Cleavage by PSA (Min); the cell gives the percent cleaved at 3 hours [% cleaved at 3 hours]	Binder
28	Ac-[ΔPro]AS[Chg]QSL-OH (SMILES CC(=O)N1CC=C[C@H]1C(=O)N[C@@H](C)C(=O)N[C@@H](CO)C(=O)N[C@H](C(=O)N[C@@H](CCC(N)=O)C(=O)N[C@@H](CO)C(=O)N[C@@H](CC(C)C)C(=O)O)C1CCCCC1) [Ac-(Dehydro-Pro)-ASChgQ-SL-acid]
44	{PEG(2)″}-[Hyp]AS[Chg]QSL-OH [PEG(2)-(4-trans-L-Hyp)-ASChgQ-SL-acid]
